B1: His-tagged Arl4A T51N [not stated] / GST-VPS36 (201–386) [not stated] (parent complex)
chain 1: MGNGLSDQTSILSNLPSFQSFHIVILGLDCAGKTTVLYRLQFNEFVNTVPNKGFNTEKIKVTLGNSKTVTFHFWDVGGQEKLRPLWKSYTRCTDGIVFVVDSVDVERMEEAKTELHKITRISENQGVPVLIVANKQDLRNSLSLSEIEKLLAMGELSSSTPWHLQPTCAIIGDGLKEGLEKLHDMIIKRRKMLRQQKKKR
chain 2: KIKDKQGDITEDETIRFKSYLLSMGIANPVTRETYGSGTQYHMQLAKQLAGILQVPLEERGGIMSLTEVYCLVNRARGMELLSPEDLVNACKMLEALKLPLRLRVFDSGVMVIELQSHKEEEMVASALETVSEKGSLTSEEFAKLVGMSVLLAKERLLLAEKMGHLCRDDSVEGLRFYPNLFMTQS
B2: untagged Arl4A T51N (pSG5) [not stated] / VPS36-WT-Myc [not stated] (parent complex)
chain 1: B1 chain 1
chain 2: MDRFVWTSGLLEINETLVIQQRGVRIYDGEEKIKFDAGTLLLSTHRLIWRDQKNHECCMAILLSQIVFIEEQAAGIGKSAKIVVHLHPAPPNKEPGPFQSSKNSYIKLSFKEHGQIEFYRRLSEEMTQRRWENMPVSQSLQTNRGPQPGRIRAVGIVGIERKLEEKRKETDKNISEAFEDLSKLMIKAKEMVELSKSIANKIKDKQGDITEDETIRFKSYLLSMGIANPVTRETYGSGTQYHMQLAKQLAGILQVPLEERGGIMSLTEVYCLVNRARGMELLSPEDLVNACKMLEALKLPLRLRVFDSGVMVIELQSHKEEEMVASALETVSEKGSLTSEEFAKLVGMSVLLAKERLLLAEKMGHLCRDDSVEGLRFYPNLFMTQS

This is an account of results in article PMC10687025, “Endosomal Arl4A attenuates EGFR degradation by binding to the ESCRT-II component VPS36” (Nature Communications, 2023).

The variants in the first assay derive from B1. Description: GST pull-down with densitometric quantification; parent: 1; read off a plot.
For chain 2 L152A, chain 2 K154A, chain 2 E155A, chain 2 R156A, the ratio to parent was roughly 0.09. Still for that read-out and setting: the value for chain 2 F142A, chain 2 K144A, chain 2 L145A, chain 2 V146A was roughly 0.31; that for chain 2 L137A, chain 2 T138A, chain 2 S139A, chain 2 E140A, chain 2 E141A was roughly 0.22.

A further assay covers variants of B2. The assay can be described thus: co-immunoprecipitation (Myc-Trap) with densitometric quantification; HeLa cell lysates; parent: 1; read off a plot.
In the case of chain 2 L352A, chain 2 K354A, chain 2 E355A, chain 2 R356A, the ratio to parent was roughly 0.54.
